Source: US20230242675A1 (SHANGHAI EPIMAB BIOTHERAPEUTICS, published 2023)
Where a chain is given by its changes, count along the chain named. Names may count otherwise.

Key:
[1] = molecular target: T1, human TGFβ2 (human, UniProt P61812 303-414); assay: ELISA: human TGFβ2 coated (1 µg/ml), binding protein titrated 0.0006-10 nM, anti-human IgG Fc-HRP, OD450
T1 construct: also called TGFβ isoform 2; TGFβ2 (Cat. No. CJ79, Novoprotein)
T1 sequence (looked up): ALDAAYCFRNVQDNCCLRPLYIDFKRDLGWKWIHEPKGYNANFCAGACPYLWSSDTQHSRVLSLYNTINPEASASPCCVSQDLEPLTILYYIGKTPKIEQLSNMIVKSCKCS
Protocol: (§1) Accordingly, each of the wells of the ELISA microplates provided a reaction mixture to test the ability of a particular binding protein at a particular concentration to bind to a particular TGFβ isoform. […] Plates were washed three times in washing buffer (PBS containing 0.05% Tween 20) and blocked for 1 hour at 37° C. with 200 μl per well of blocking buffer (1% BSA in PBS containing 0.05% Tween 20). […] The wells containing the various binding mixtures were incubated at 37° C. for 1 hour to permit binding to TGFβ protein on the surface of the wells. Thereafter, the wells were washed four times with washing buffer, and anti-human IgG Fc HRP (Sigma, Catalog No. A0170) was diluted 1:10000 and added to the wells at 100 μl per well to detect binding protein that was bound to TGFβ protein present on the surface of a well. The plates were incubated for 1 hour at 37° C. and washed four times with washing buffer. 100 μl of tetramethylbenzidine (TMB) chromogenic solution were added per well. Following color development, the reaction was stopped with 1 N HCl, and absorbance at 450 nm (OD450) was measured on a VARIOSKAN™ LUX microplate reader (Thermo Scientific™).

[2] = molecular target: T2, biotinylated human PD-L1 protein (ACROBiosystems, H82E5) (human, UniProt Q9NZQ7 19-238, biotinylated (site not stated)); assay: dual-binding ELISA: human TGFβ2 coated, 5 nM binding protein bound to it, biotinylated human PD-L1 titrated 0.0006-10 nM (axis labelled Ab (nM)), streptavidin-HRP, OD450; the EC50 is of the titrated PD-L1
T2 construct: also called biotinylated PD-L1
Protocol: (§2) Briefly, ELISA plates were incubated overnight at 4° C. with 100 μl of a human TGFβ isoform diluted in PBS buffer, pH 7.4, at 1 μg/ml, to allow the human TGFβ isoform to coat (adsorb to) the surface of the wells. Plates were washed three times in washing buffer (PBS containing 0.05% Tween 20) and blocked for 1 hour at 37° C. with 200 μl per well blocking buffer (1% BSA in PBS containing 0.05% Tween 20). […] The wells were washed four times with washing buffer, and Streptavidin-HRP (Merck, RABHRP3) was diluted 1:10000 and added to the wells at 100 μl per well. The plates were incubated for 1 hour at 37° C. and washed four times in washing buffer. 100 μl of tetramethylbenzidine (TMB) chromogenic solution were added per well.

[3] = molecular target: T3, human TGFβ1 (human, UniProt P01137 279-390); assay: ELISA: human TGFβ1 coated (1 µg/ml), binding protein titrated 0.0006-10 nM, anti-human IgG Fc-HRP, OD450
T3 construct: also called TGFβ isoform 1; TGFβ1 (Cat. No. CA59, Novoprotein)
Protocol: as §1

[4] = molecular target: T4, human PD-L1/His fusion protein (human, UniProt Q9NZQ7 19-239); assay: BLI Octet Red, binding protein on AHC sensor, PD-L1-his in solution
Protocol: Sensors were then dipped into running buffer (1×pH 7.2 PBS, 0.05% Tween 20, 0.1% BSA) for 60 seconds to check baseline. Binding was measured by dipping sensors into a series diluted concentration of recombinant human PD-L1-his protein. Dissociation was followed by dipping sensors into running buffer for 1200 seconds. The association and dissociation curves were fitted to a 1:1 Langmuir binding model using ForteBio Data Analysis software (Pall). The equilibrium dissociation constant KD (M) of the reaction between antibodies and related target proteins was then calculated from the kinetic rate constants using the formula KD=koff/kₒₙ.

[5] = molecular target: T2, biotinylated human PD-L1 protein …; assay: dual-binding ELISA: human TGFβ3 coated, 5 nM binding protein bound to it, biotinylated human PD-L1 titrated 0.0006-10 nM (axis labelled Ab (nM)), streptavidin-HRP, OD450; the EC50 is of the titrated PD-L1
Protocol: as §2

[6] = molecular target: T4, human PD-L1/His fusion protein; assay: BLI Octet RED96, antibody on AHC sensor, single conc. PD-L1/His; test group 3
Protocol: (§3) All 15 antibodies in Table 13 were assayed for and ranked by dissociation rate constant (koff). […] Briefly, antibodies were characterized for affinities and binding kinetics by Octet®RED96 biolayer interferometry (Pall ForteBio LLC). Antibodies were captured by Anti-hIgG Fc Capture (AHC) Biosensors (Pall) at a concentration of 100 nM for 30 seconds. Sensors were then dipped into running buffer (1×pH 7.2 PBS, 0.05% Tween 20, 0.1% BSA) for 60 seconds to check the baseline. Binding was measured by dipping sensors into a single concentration of recombinant human PD-L1/His fusion protein (Novoprotein). Dissociation was followed by dipping sensors into running buffer for 1200 seconds. The association and dissociation curves were fitted to a 1:1 Langmuir binding model using ForteBio Data Analysis software (Pall). […] The off-rate ratio serves as a data normalization. Accordingly, in each test group, the off-rate ratios of the humanized antibodies can be compared with that of the chimeric antibody, and the off-rate ratios of each of the humanized antibodies can be compared to one another within all test groups.

[7] = molecular target: T4, human PD-L1/His fusion protein; assay: BLI off-rate; test group 3
Protocol: as §3

[8] = molecular target: T5, cynomolgus (cyno) PD-L1/His fusion protein (cynomolgus, UniProt G7PSE7 19-239); assay: ELISA, scFv supernatant on cynomolgus PD-L1
T5 construct: also called cynomolgus PD-L1; not shown: His tag

[9] = molecular target: T4, human PD-L1/His fusion protein; assay: RBA ELISA: coated PD-L1/His, competitor biotinylated PD-1/Fc
Protocol: Anti-PD-L1 scFv supernatants were tested for ability to block PD-L1/PD-1 interaction. […] The mixtures were added to individual wells and incubated at room temperature for 30 minutes. […] Bound signal was developed by Streptavidin-HRP (Cat. No. S2468, Sigma) and read by a plate reader at a wavelength of 450 nm. A low signal, as with the positive control, indicated blocking activity.

[10] = molecular target: T4, human PD-L1/His fusion protein; assay: BLI Octet RED96, single concentration of human PD-L1-his
Protocol: Briefly, antibodies were characterized for affinities and binding kinetics by biolayer interferometry (BLI) using an Octet® RED96 sensor device (Pall ForteBio LLC). Antibodies were captured by anti-hIgG Fc Capture (AHC) Biosensors (Pall) at a concentration of 100 nM for 30 seconds. Sensors were then dipped into running buffer (1×, pH7.2, PBS, 0.05% Tween 20, 0.1% BSA) for 60 seconds to check baseline. Binding was measured by dipping sensors into a single concentration of recombinant human PD-L1-his protein. Dissociation was followed by dipping sensors into running buffer for 1200 seconds. The association and dissociation curves were fitted to a 1:1 Langmuir binding model using the manufacturer's data analysis software (ForteBio Data Analysis software, Pall ForteBio LLC).

[11] = molecular target: T6, human PD-L1 on the cell surface (CHO-K1 cells stably expressing human PD-L1) (human, UniProt Q9NZQ7 19-290); assay: FACS, scFv-phage on CHO-K1/PD-L1 cells
T6 construct: whole, on cells; Also used here for PD-L1 on the monocyte-derived dendritic cells of the MLR assay (functional rows); also called CHO-K1/PD-L1; CHOK1-PD-L1
Protocol: After characterization of ability to bind PD-L1 in ELISA and RBA ELISA, the PD-L1-binding positive scFv clones were sequenced. […] Briefly, 2×10⁵ cells of the CHO-K1/PD-L1 cell line stably expressing huPD-L1 described above were added to round-bottom wells of a 96-well plate (Cat. No. 3799, Corning). A phage supernatant from an overnight culture that had been rescued by hyper phage was added. The mixture of CHO-K1/PD-L1 cells and phage supernatant in each well was diluted with 50 μl of FACS buffer (PBS with 2% FBS). The anti-PD-L1 scFv-phages were detected with murine anti-M13 phage antibody (Cat. No. 11973-MM05, Sino biological) and then with Donkey anti-Mouse IgG (H+L) Highly Cross-Adsorbed, Alexa Fluor® 488 conjugate, secondary antibody (Cat. No. A21202, Invitrogen). Cell fluorescence was monitored using a flow cytometer.

T2 sequence (Q9NZQ7 19-238 limits assumed): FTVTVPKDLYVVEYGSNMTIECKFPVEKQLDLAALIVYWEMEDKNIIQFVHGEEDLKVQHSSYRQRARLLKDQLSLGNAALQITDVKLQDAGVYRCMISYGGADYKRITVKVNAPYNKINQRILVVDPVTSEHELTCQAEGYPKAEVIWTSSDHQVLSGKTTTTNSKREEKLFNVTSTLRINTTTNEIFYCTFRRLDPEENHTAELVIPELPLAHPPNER
T4 sequence (Q9NZQ7 19-239 limits assumed): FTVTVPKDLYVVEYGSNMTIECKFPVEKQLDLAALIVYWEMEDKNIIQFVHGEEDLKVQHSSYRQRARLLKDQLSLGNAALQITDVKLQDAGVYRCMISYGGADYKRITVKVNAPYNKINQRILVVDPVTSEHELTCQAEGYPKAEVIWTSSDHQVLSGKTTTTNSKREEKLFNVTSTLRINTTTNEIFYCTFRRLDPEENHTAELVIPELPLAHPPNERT
T3 sequence (P01137 279-390 limits assumed): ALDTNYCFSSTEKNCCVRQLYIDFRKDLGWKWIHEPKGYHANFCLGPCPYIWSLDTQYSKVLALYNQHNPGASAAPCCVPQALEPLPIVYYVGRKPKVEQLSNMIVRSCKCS
T6 sequence (Q9NZQ7 19-290): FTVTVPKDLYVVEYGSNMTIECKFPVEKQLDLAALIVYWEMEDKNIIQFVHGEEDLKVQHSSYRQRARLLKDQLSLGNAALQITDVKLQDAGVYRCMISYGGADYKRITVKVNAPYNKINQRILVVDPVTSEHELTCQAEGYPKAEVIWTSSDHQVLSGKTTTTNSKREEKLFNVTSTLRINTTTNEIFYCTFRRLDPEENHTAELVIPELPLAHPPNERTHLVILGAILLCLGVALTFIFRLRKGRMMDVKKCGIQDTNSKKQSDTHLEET
T5 sequence (G7PSE7 entry or part of it): as the sequence (Q9NZQ7 19-239 limits assumed) above, with A33T, A34S, S62N, R68Q, Q82R, F173L, T185A, T192I, H215L counted along it

B1: FIT1012-3a TGFβ/PD-L1 bispecific binding protein (bispecific antibody, human IgG1, kappa)
heavy: not shown
chain: TIPPHVQKSVNNDMIVTDNNGAVKFPQLCKFCDVRFSTCDNQKSCMSNCSITSICEKPQEVCVAVWRKNDENITLETVCHDPKLPYHDFILEDAASPKCIMKEKKKPGETFFMCSCSSDECNDNIIFSEEYNTSNPDASTKGPSVFPLAPSSKSTSGGTAALGCLVKDYFPEPVTVSWNSGALTSGVHTFPAVLQSSGLYSLSSVVTVPSSSLGTQTYICNVNHKPSNTKVDKKVEPKSC
light: DIQMTQSPSSVSASVGDRVTITCKASQDVGTAVAWYQQKPGKAPKLLIYWASTRHTGVPDRFTGSGSGTDFTLTISSLQPEDFATYYCQQYSSYPYTFGGGTKVEIKRTVAAPSVFIFPPSDEQLKSGTASVVCLLNNFYPREAKVQWKVDNALQSGNSQESVTEQDSKDSTYSLSSTLTLSKADYEKHKVYACEVTHQGLSSPVTKSFNRGEC
notes: Six-chain protein; anti-PD-L1 moiety from HuEM0005-86-6 with G55A; four TGFβR2(ECD) traps
EC50 [1]: 0.525 nM
EC50 [2]: 0.205 nM
EC50 (read off the curve) [3]: ~0.4 nM
Kd [4]: 0.609 nM
koff [4]: 0.000344 s⁻¹
kon [4]: 564000 M⁻¹ s⁻¹
EC50 [5]: 0.205 nM

B2: FIT1012-4a TGFβ/PD-L1 bispecific binding protein (bispecific antibody, human IgG1, kappa)
heavy: not shown
chain: B1 chain
light: not shown
notes: Six-chain protein; anti-PD-L1 moiety from HuEM0005-87-1; four TGFβR2(ECD) traps
EC50 [1]: 0.288 nM
EC50 [2]: 0.114 nM
EC50 [3]: 0.29 nM
Kd [4]: 1.3 nM
EC50 [5]: 0.114 nM

B3: EM0005-86c-G55A (antibody, human IgG1, V domains shown)
VH: QVQLQQSGAELVRPGSSVKMSCKTSGYTFTTYGINWVKQRPGQGLEWIGYIYIGNAYTEYNEKFKGKATLTSDPSSRTAYMQLSSLTSEDSAIYFCARDLMVIAPKTMDYWGQGTSVTVSS
VL: DIQMNQSHKFMSTSVGDRVSITCKASQDVGTAVAWYQQKPGQSPKLLIYWASTRHTGVPDRFTGGGSGTDFTLTISNVQSEDLADYFCQQYSSYPYTFGGGTKLEMK
notes: Chimeric antibody with G55A (Kabat) in CDR-H2; also called HuEM0005-86-G55A
koff [6]: 0.00111 s⁻¹
Off-Rate Ratio to that of EM0005-86c [7]: 108%

B4: EM0005-mAb90 scFv (scFv)
scFv: QVQLKQSGAELVRPGSSVKMSCKTSGYTFTSHSINWVKQRPGQGLEWIGYMYIGNGYTEYNEKFKGKATLTSDTSSTTAYMQLSSLTSEDSAIYFCAKITPVVAPYVMDYWGQGTSVTVSSGGGGSGGGGSGGGGSDIVMTQTHKFMSTSVGDRVSITCKASQDVGTAVAWYQQKPGQSPKLLIYWASTRHTGVPDRFTGSGSGTDFTLTISNVQSEDLADYFCQQYSSYPYTFGGGTKLELK
notes: Tested as bacterial culture supernatant and as scFv-displaying phage in FACS; tags of the pCAN phagemid not spelled out for library clones; also called 6C11
EC50 [8]: 4 nM
RBA (% inhibition) [9]: 100%
koff [10]: 0.000232 s⁻¹
Binding to CHOK1-PD-L1 (X Geo Mean) [11]: 36.6

B5: HuEM0005-86-5 (antibody, human IgG1, V domains shown)
VH: EVQLVQSGAEVKKPGASVKVSCKASGYTFTTYGINWVRQAPGQGLEWIGYIYIGNGYTEYNEKFKGKATLTSDTSTSTAYMELSSLRSDDTAVYYCARDLMVIAPKTMDYWGQGTTVTVSS
VL: DIQMTQSPSSVSASVGDRVTITCKASQDVGTAVAWYQQKPGKAPKLLIYWASTRHTGVPDRFTGSGSGTDFTLTISSLQPEDFATYYCQQYSSYPYTFGGGTKVEIK
koff [6]: 0.00124 s⁻¹
Off-Rate Ratio to that of EM0005-86c [7]: 120%

B6: HuEM0005-86-13 (antibody, human IgG1, V domains shown)
VH: B5 VH with A24T, T74P, S77R
VL: B5 VL with A43S, Y87F
koff [6]: 0.00119 s⁻¹
Off-Rate Ratio to that of EM0005-86c [7]: 116%

B7: HuEM0005-86-14 (antibody, human IgG1, V domains shown)
VH: B5 VH with K67R, A68V, T74P, S77R
VL: B5 VL with A43S, Y87F
koff [6]: 0.000838 s⁻¹
Off-Rate Ratio to that of EM0005-86c [7]: 81%
